Source: patent publication US20210024620A1

Assays:
[1] = target: Human CD16a (FcγRIIIa residues 17-208 with C-terminal HPC4 tag and valine at position 158) (human) (UniProt P08637); assay: Biacore SPR, HPC4-tagged FcγRIIIa-V158 captured by anti-HPC4, pH 7.4
[2] = target: biotinylated human FcRn (human) (UniProt P55899); assay: Biacore, biotin-captured hFcRn, pH 6.0
[3] = target: biotinylated human FcRn (human) (UniProt P55899); assay: Biacore, biotin-captured hFcRn, pH 7.4
[4] = target: biotinylated human FcRn (human) (UniProt P55899); assay: Biacore, biotin-captured hFcRn, pH 8.0
[5] = target: biotinylated cynomolgus FcRn (cynomolgus) (UniProt Q8SPV9); assay: Biacore, biotin-captured cFcRn, pH 6.0
[6] = target: biotinylated cynomolgus FcRn (cynomolgus) (UniProt Q8SPV9); assay: Biacore, biotin-captured cFcRn, pH 7.4
[7] = target: biotinylated cynomolgus FcRn (cynomolgus) (UniProt Q8SPV9); assay: Biacore, biotin-captured cFcRn, pH 8.0
[8] = target: biotinylated human FcRn (human) (UniProt P55899); assay: Biacore, biotin-captured hFcRn, pH 7.4, 1000 nM antibody
[9] = target: biotinylated human FcRn (human) (UniProt P55899); assay: Biacore, biotin-captured hFcRn, pH 9.0, 1000 nM antibody
[10] = target: biotinylated cynomolgus FcRn (cynomolgus) (UniProt Q8SPV9); assay: Biacore, biotin-captured cFcRn, pH 7.4, 1000 nM antibody
[11] = target: biotinylated cynomolgus FcRn (cynomolgus) (UniProt Q8SPV9); assay: Biacore, biotin-captured cFcRn, pH 8.0, 1000 nM antibody
[12] = target: biotinylated cynomolgus FcRn (cynomolgus) (UniProt Q8SPV9); assay: Biacore, biotin-captured cFcRn, pH 9.0, 1000 nM antibody
[13] = target: biotinylated human FcRn (p51 subunit residues 24-297 with C-terminal Avi-tag; beta2-microglobulin residues 21-119) (human) (UniProt P55899); assay: Biacore SPR, pH 6.0
[14] = target: biotinylated human FcRn (p51 subunit residues 24-297 with C-terminal Avi-tag; beta2-microglobulin residues 21-119) (human) (UniProt P55899); assay: Biacore SPR, pH 7.4, steady state
[15] = target: biotinylated human FcRn (p51 subunit residues 24-297 with C-terminal Avi-tag; beta2-microglobulin residues 21-119) (human) (UniProt P55899); assay: Biacore; inverse ratio (RU at pH 7.4 over affinity at pH 6.0)
[16] = target: biotinylated human FcRn (human) (UniProt P55899); assay: Biacore, biotin-captured hFcRn, pH 8.0, 1000 nM antibody
[17] = target: biotinylated human FcRn (p51 subunit residues 24-297 with C-terminal Avi-tag; beta2-microglobulin residues 21-119) (human) (UniProt P55899); assay: Biacore; affinity at pH 6.0 (M^-1) over steady state RU at pH 7.4
[18] = target: biotinylated human FcRn (human) (UniProt P55899); assay: Biacore, pH 6.0
rat FcRn (rat) [19] = target: rat FcRn (rat) (UniProt P13599); assay: Biacore, pH 6.0
Sequence of rat FcRn (rat) (P13599 23-298 limits assumed, chain 1 of 2): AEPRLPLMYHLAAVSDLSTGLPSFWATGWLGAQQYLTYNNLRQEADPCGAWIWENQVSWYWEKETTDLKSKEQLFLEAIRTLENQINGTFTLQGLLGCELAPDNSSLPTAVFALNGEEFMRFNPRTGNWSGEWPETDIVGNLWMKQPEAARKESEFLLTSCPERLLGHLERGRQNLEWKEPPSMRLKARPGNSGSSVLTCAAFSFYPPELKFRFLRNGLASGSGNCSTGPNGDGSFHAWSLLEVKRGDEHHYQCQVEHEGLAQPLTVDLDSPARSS
Sequence of rat FcRn (rat) (P07151 21-119 limits assumed, chain 2 of 2, further chain): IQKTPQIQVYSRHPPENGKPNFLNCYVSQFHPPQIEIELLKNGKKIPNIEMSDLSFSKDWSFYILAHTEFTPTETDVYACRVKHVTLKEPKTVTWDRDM

[20] = target: biotinylated human FcRn (human) (UniProt P55899); assay: Biacore, pH 6.0, apparent KD
rat FcRn (rat) [21] = target: rat FcRn (rat) (UniProt P13599); assay: Biacore, pH 6.0, apparent KD
[22] = target: biotinylated human FcRn (human) (UniProt P55899); assay: Biacore, pH 7.4, steady state response
rat FcRn (rat) [23] = target: rat FcRn (rat) (UniProt P13599); assay: Biacore, pH 7.4, steady state response
[24] = target: Human CD16a (FcγRIIIa V158) with C-terminal HPC4 tag (human) (UniProt P08637); assay: Biacore, FcγRIIIa V158 captured, steady-state fit, apparent KD
Sequence of Human CD16a (FcγRIIIa V158) with C-terminal HPC4 tag (human) (P08637 17-208 F176V): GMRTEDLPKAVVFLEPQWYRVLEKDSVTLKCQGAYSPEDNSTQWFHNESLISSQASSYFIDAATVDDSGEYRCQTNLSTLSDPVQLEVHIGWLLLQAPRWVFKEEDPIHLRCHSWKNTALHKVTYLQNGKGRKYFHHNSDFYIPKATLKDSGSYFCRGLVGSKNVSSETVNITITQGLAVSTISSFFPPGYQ

[25] = target: FcRn immobilised on the FcRn affinity column (biotinylated cynoFcRn in one experiment, biotinylated hFcRn in another); assay: FcRn affinity chromatography, linear pH gradient; species of the immobilised FcRn not given
[26] = target: biotinylated human FcRn (human) (UniProt P55899); assay: Biacore SPR, pH 7.4
rat FcRn (rat) [27] = target: rat FcRn (rat) (UniProt P13599); assay: Biacore SPR, pH 7.4
[28] = target: biotinylated human FcRn (human) (UniProt P55899); assay: Biacore SPR, pH 6.0
rat FcRn (rat) [29] = target: rat FcRn (rat) (UniProt P13599); assay: Biacore SPR, pH 6.0

Sequence of Human CD16a (FcγRIIIa residues 17-208 with C-terminal HPC4 tag and valine at position 158) (human) (P08637 17-208 F176V): as above

FcγRIIIa Binding Steady State RU [1] | Kd [2] | Kd [3] | Kd [4] | Kd [5] | Kd [6] | Kd [7] | Steady State RU [8] | Steady State RU [9] | Steady State RU [10] | Steady State RU [11] | Steady State RU [12] | Ka [13] | Steady State Binding, pH 7.4 (RU) [14] | Steady State RU [16] | Ratio (pH 6.0/pH 7.4) [17] | Substance | further results
207 RU |  |  |  |  |  |  |  |  |  |  |  |  |  |  |  | YTEKF benchmark (M252Y/S254T/T256E/H433K/N434F) hIgG1 (antibody) | 
 | 0.015 µM | 0.074 µM | 2.4 µM | 0.0083 µM | 0.076 µM | 3.2 µM | 132 RU | 2.7 RU | 152 RU | 268 RU | 3.8 RU |  |  |  |  | YTEKF hIgG1 benchmark (M252Y/S254T/T256E/H433K/N434F) (antibody) | 
211 RU | 0.018 µM | 0.101 µM | 2.7 µM | 0.015 µM | 0.085 µM | 1.2 µM | 125 RU | 0.7 RU | 165 RU | 197 RU | 1.3 RU | 8.4e+07 M⁻¹ | 59 RU | 145 RU | 1.42e+06 | mAb1 MDWY (T256D/T307W/N434Y) (antibody) | koff [2]: 0.0123 s⁻¹; kon [2]: 700000 M⁻¹ s⁻¹; koff [3]: 0.05 s⁻¹; kon [3]: 500000 M⁻¹ s⁻¹; koff [4]: 0.54 s⁻¹; kon [4]: 260000 M⁻¹ s⁻¹; koff [5]: 0.0103 s⁻¹; kon [5]: 700000 M⁻¹ s⁻¹; koff [6]: 0.029 s⁻¹; kon [6]: 350000 M⁻¹ s⁻¹; koff [7]: 0.69 s⁻¹; kon [7]: 620000 M⁻¹ s⁻¹; Ratio (pH 6.0/pH 7.4) [15]: 7.02e-07
 |  | 0.082 µM | 2.7 µM | 0.0043 µM | 0.095 µM | 2.9 µM | 140 RU | 1.4 RU | 176 RU | 245 RU | 2.2 RU | 1.11e+08 M⁻¹ | 68.6 RU | 196 RU |  | mAb1 YDQF (M252Y/T256D/T307Q/N434F) (antibody) | 
 |  |  |  |  |  |  |  |  |  |  |  | 8.7e+06 M⁻¹ | 19.8 RU |  | 439000 | mAb1 YDQN (M252Y/T256D/T307Q) (antibody) | koff [18]: 0.028 s⁻¹; kon [18]: 250000 M⁻¹ s⁻¹; koff (rat FcRn (rat) [19]): 0.0003 s⁻¹; kon (rat FcRn (rat) [19]): 5000 M⁻¹ s⁻¹; Kd [20]: 0.115 µM; Kd (rat FcRn (rat) [21]): 0.0051 µM; Steady State RU [22]: 19.8 RU; Steady State RU (rat FcRn (rat) [23]): 65.2 RU; Ratio (pH 6.0/pH 7.4) [15]: 2.28e-06; Kd [24]: 1.06 µM; FcRn affinity column elution pH [25]: 8.51 pH
 | 0.0027 µM | 0.05 µM | 0.67 µM | 0.0019 µM | 0.056 µM | 0.49 µM | 157 RU | 4.6 RU | 196 RU | 325 RU | 6.3 RU | 2.35e+08 M⁻¹ | 80.2 RU | 264 RU |  | mAb1 YDQY (M252Y/T256D/T307Q/N434Y) (antibody) | 
 | 0.015 µM | 0.076 µM | 8.7 µM | 0.013 µM | 0.064 µM | 2.5 µM | 120 RU | 0.6 RU | 134 RU | 183 RU | 1.9 RU | 9.01e+07 M⁻¹ | 65.4 RU | 141 RU |  | mAb1 YDTY (M252Y/T256D/N434Y) (antibody) | 
128 RU |  | 0.194 µM | 1.3 µM | 0.0086 µM | 0.115 µM | 0.68 µM | 124 RU |  | 173 RU | 313 RU | 4.6 RU | 1.66e+08 M⁻¹ | 71.8 RU | 235 RU |  | mAb1 YDWF (M252Y/T256D/T307W/N434F) (antibody) | 
136 RU | 0.0052 µM |  | 0.7 µM | 0.0032 µM | 0.049 µM | 1.5 µM | 166 RU | 10.4 RU | 178 RU | 354 RU | 16 RU | 2.66e+08 M⁻¹ | 88.5 RU | 281 RU |  | mAb1 YDWY (M252Y/T256D/T307W/N434Y) (antibody) | 
226 RU | 0.015 µM |  |  |  |  |  |  |  |  |  |  |  |  |  |  | mAb1 YEQF (M252Y/T256E/T307Q/N434F) (antibody) | koff [2]: 0.0121 s⁻¹; kon [2]: 790000 M⁻¹ s⁻¹
 |  |  |  |  |  |  |  |  |  |  |  | 4.59e+06 M⁻¹ | 15.2 RU |  | 302000 | mAb1 YEQN (M252Y/T256E/T307Q) (antibody) | koff [18]: 0.041 s⁻¹; kon [18]: 190000 M⁻¹ s⁻¹; koff (rat FcRn (rat) [19]): 0.0004 s⁻¹; kon (rat FcRn (rat) [19]): 5000 M⁻¹ s⁻¹; Kd [20]: 0.218 µM; Kd (rat FcRn (rat) [21]): 0.0078 µM; Steady State RU [22]: 15.2 RU; Steady State RU (rat FcRn (rat) [23]): 61.8 RU; Ratio [15]: 3.31e-06; Kd [24]: 1.62 µM; FcRn affinity column elution pH [25]: 8.12 pH
 | 0.0048 µM | 0.079 µM | 2.1 µM | 0.0037 µM | 0.08 µM | 2.5 µM | 136 RU | 2.4 RU | 157 RU | 264 RU | 3.4 RU |  |  | 213 RU |  | mAb1 YEQY (M252Y/T256E/T307Q/N434Y) (antibody) | 
 |  |  |  |  |  |  |  |  |  |  |  | 7.81e+06 M⁻¹ | 9.8 RU |  | 797000 | mAb1 YETN (M252Y/T256E) (antibody) | koff [18]: 0.076 s⁻¹; kon [18]: 590000 M⁻¹ s⁻¹; koff (rat FcRn (rat) [19]): 0.0027 s⁻¹; kon (rat FcRn (rat) [19]): 32000 M⁻¹ s⁻¹; Steady State RU [26]: 9.8 RU; Steady State RU (rat FcRn (rat) [27]): 55.1 RU; Kd [28]: 0.128 µM; koff [28]: 0.0757 s⁻¹; kon [28]: 592000 M⁻¹ s⁻¹; Kd (rat FcRn (rat) [29]): 0.00843 µM; koff (rat FcRn (rat) [29]): 0.00273 s⁻¹; kon (rat FcRn (rat) [29]): 324000 M⁻¹ s⁻¹; Kd [20]: 0.128 µM; Kd (rat FcRn (rat) [21]): 0.0084 µM; Steady State RU [22]: 9.8 RU; Steady State RU (rat FcRn (rat) [23]): 55.1 RU; Ratio (pH 6.0/pH 7.4) [15]: 1.25e-06; Kd [24]: 0.878 µM; FcRn affinity column elution pH [25]: 7.83 pH
163 RU | 0.013 µM |  |  |  |  |  |  |  |  |  |  |  |  |  |  | mAb1 YEWF (M252Y/T256E/T307W/N434F) (antibody) | koff [2]: 0.0103 s⁻¹; kon [2]: 810000 M⁻¹ s⁻¹
 |  |  |  |  |  |  |  |  |  |  |  | 8.47e+06 M⁻¹ | 15.9 RU |  | 533000 | mAb1 YTWN (M252Y/T307W) (antibody) | koff [18]: 0.057 s⁻¹; kon [18]: 480000 M⁻¹ s⁻¹; koff (rat FcRn (rat) [19]): 0.0011 s⁻¹; kon (rat FcRn (rat) [19]): 21000 M⁻¹ s⁻¹; Steady State RU [26]: 15.9 RU; Steady State RU (rat FcRn (rat) [27]): 66.1 RU; Kd [28]: 0.118 µM; koff [28]: 0.057 s⁻¹; kon [28]: 483000 M⁻¹ s⁻¹; Kd (rat FcRn (rat) [29]): 0.00521 µM; koff (rat FcRn (rat) [29]): 0.00109 s⁻¹; kon (rat FcRn (rat) [29]): 208000 M⁻¹ s⁻¹; Kd [20]: 0.118 µM; Kd (rat FcRn (rat) [21]): 0.0052 µM; Steady State RU [22]: 15.9 RU; Steady State RU (rat FcRn (rat) [23]): 66.1 RU; Kd [24]: 0.896 µM; FcRn affinity column elution pH [25]: 8.14 pH
 |  | 0.065 µM | 2.5 µM | 0.0077 µM | 0.07 µM | 1.1 µM | 133 RU | 4 RU | 159 RU | 292 RU | 6.5 RU | 1.06e+08 M⁻¹ | 75.1 RU | 232 RU |  | mAb1 YTWY (M252Y/T307W/N434Y) (antibody) | 
